Source: paper PMC5454378, “Histone deacetylase 10 structure and molecular function as a polyamine deacetylase” (Nature Communications, 2017)

How the values were obtained:
Assay in all cases: purified protein, by the assay type
[1] = substrate: CC(=O)NCCCC[C@H](NC(=O)[C@H](C)NC(=O)CNC(C)=O)C(=O)Nc1ccc2c(C)cc(=O)oc2c1; set-up: fluorogenic AMC-conjugated acetyllysine peptide deacetylation, steady-state kinetics
Excerpt: To determine steady-state kinetic parameters for the hydrolysis of a variety of acetylpolyamine and acetyllysine substrates, we prepared full-length recombinant HDAC10 from human (H. sapiens, hHDAC10) and zebrafish (D. rerio, zHDAC10). The CDs of these orthologues are highly similar based on 63%/79% sequence identity/similarity; only full-length constructs yielded soluble proteins. We first assayed the lysine deacetylase activity of these constructs against two commercially available aminomethylcoumarin (AMC)-conjugated fluorogenic acetyllysine peptides, GAK(ac)-AMC and RGK(ac)-AMC (molecular structures of all substrates are shown in Supplementary Fig. 2). […] These measurements were consistent with earlier studies reporting that HDAC10 activity was not measurable using fluorogenic peptide substrates. We also tested activity with 11 non-fluorogenic acetyllysine substrates using a […] chromatography–mass spectrometry (LC–MS)-based discontinuous assay[17] to avoid potential steric clashes that might occur with the bulky AMC group. These substrates included K(ac)NL and GAK(ac)NLQ, which mimic the peptide segment containing K73 in the proposed HDAC10 substrate MutS homologue 2 (MSH2)[22]. Again, we observed no or very low catalytic activity (Fig. 2 and Supplementary Table 1). In comparison with its closest relative, the cytosolic isozyme HDAC6 (ref. [17]), HDAC10 was clearly not an efficient lysine deacetylase.

[2] = substrate: CC(=O)NCCCC[C@H](NC(=O)[C@H](C)NC(C)=O)C(=O)N[C@@H](C)C(N)=O; set-up: discontinuous LC-MS deacetylation assay, dansylated product quantified, steady-state kinetics; details: 50.0 °C
Protocol: (§1) To study steady-state kinetics with non-fluorogenic peptide substrates and acetylpolyamines, a discontinuous LC–MS was employed based on the protocol of assaying nonfluorogenic acetyllysine peptide substrates for HDAC6 (ref. [17]). Assays were performed in triplicate. Briefly, 5 μl of enzyme (0.050–20 μM) in HEPES buffer (20 mM HEPES (pH 7.5), 100 mM NaCl, 5 mM KCl, 1 mM MgCl2) was added to 35 μl of substrate solution to initiate the reaction. […] The deacetylation products were derivatized with dansyl chloride at 50 °C for 2 hrs. The deacetylation products were detected by LC–MS using a Waters SQD equipped with an Acquity UPLC (Waters, Milford, MA, USA) and quantified by using the standard curves generated from the mass signals of the corresponding deacetylated polyamines and peptides. Inhibition of HDAC10 activity was measured by using 0.49 μM zHDAC10 with 192 μM N^8-acetylspermidine. Data were analysed by logistic regression for IC50 determination and the inhibition constant Ki was calculated based on the Cheng-Prusoff equation, Ki=IC50 / (1+[S]/KM)[45]. Assays were performed in triplicate at room temperature.

[3] = substrate: CC(=O)NCCCC[C@H](NC(C)=O)C(N)=O; set-up: discontinuous LC-MS deacetylation assay, dansylated product quantified, steady-state kinetics; details: 50.0 °C
Protocol: as §1

[4] = substrate: CC(=O)NCCCCCN; set-up: steady-state kinetics of acetylpolyamine deacetylation, discontinuous LC-MS after dansyl chloride derivatization
Protocol: (§2) To study steady-state kinetics with non-fluorogenic peptide substrates and acetylpolyamines, a discontinuous LC–MS was employed based on the protocol of assaying nonfluorogenic acetyllysine peptide substrates for HDAC6 (ref. [17]). Assays were performed in triplicate. Briefly, 5 μl of enzyme (0.050–20 μM) in HEPES buffer (20 mM HEPES (pH 7.5), 100 mM NaCl, 5 mM KCl, 1 mM MgCl2) was added to 35 μl of substrate solution to initiate the reaction. After incubation for 15–60 min at room temperature, the reaction was quenched by addition of 50 μl of 20 mM dansyl chloride dissolved in acetonitrile followed by 10 μl of NaHCO3 (1.6 M, pH 10.0). The deacetylation products were derivatized with dansyl chloride at 50 °C for 2 hrs. The deacetylation products were detected by LC–MS using a Waters SQD equipped with an Acquity UPLC (Waters, Milford, MA, USA) and quantified by using the standard curves generated from the mass signals of the corresponding deacetylated polyamines and peptides. Inhibition of HDAC10 activity was measured by using 0.49 μM zHDAC10 with 192 μM N^8-acetylspermidine. Data were analysed by logistic regression for IC50 determination and the inhibition constant Ki was calculated based on the Cheng-Prusoff equation, Ki=IC50 / (1+[S]/KM)[45]. Assays were performed in triplicate at room temperature. We next tested the PDAC activity of hHDAC10 and zHDAC10 against several polyamine substrates using the LC–MS assay (Fig. 2, Supplementary Fig. 3 and Supplementary Table 1). […] For hHDAC10 and zHDAC10, kcat/KM=2,900±200 and 4,600±300 M^−1 s^−1, respectively; in comparison, N^1-acetylspermidine was a poor substrate with kcat/KM=24±5 and 7±2 M^−1 s^−1, respectively. Substrate specificity trends observed for zHDAC10 and hHDAC10 matched those of the previously reported mammalian N^8-acetylspermidine deacetylase activity. […] As a negative control, we examined the N^8-acetylspermidine deacetylase activity of human and zebrafish HDAC6 (ref. [17]). HDAC6 preferentially catalyses the deacetylation of the peptide substrate RGK(ac)-AMC with a catalytic efficiency >100-fold greater than that for the deacetylation of N^8-acetylspermidine. Therefore, HDAC6 is clearly an acetyllysine deacetylase and HDAC10 is an N^8-acetylspermidine deacetylase. It is notable that the molecular function of HDAC10 coincides with the cellular function of the cytosolic PDAC indicated in Fig. 1a.

[5] = substrate: CC(=O)NCCCNCCCCNCCCN; set-up: steady-state kinetics of acetylpolyamine deacetylation, discontinuous LC-MS after dansyl chloride derivatization
Protocol: as §2

[6] = substrate: CC(=O)NCCCCN; set-up: steady-state kinetics of acetylpolyamine deacetylation, discontinuous LC-MS after dansyl chloride derivatization
Protocol: as §2

[7] = substrate: CC(=O)NCCCCCCCCN; set-up: steady-state kinetics of acetylpolyamine deacetylation, discontinuous LC-MS after dansyl chloride derivatization
Protocol: as §2

[8] = substrate: CC(=O)NCCCCNCCCNC(C)=O; set-up: steady-state kinetics of acetylpolyamine deacetylation, discontinuous LC-MS after dansyl chloride derivatization
Protocol: as §2

[9] = substrate: CC(=O)NCCCCNCCCN; set-up: steady-state kinetics of acetylpolyamine deacetylation, discontinuous LC-MS after dansyl chloride derivatization
Protocol: as §2

[10] = substrate: CC(=O)NCCCC[C@H](NC(=O)[C@H](C)NC(=O)CNC(C)=O)C(=O)N[C@@H](CC(N)=O)C(=O)N[C@@H](CC(C)C)C(=O)N[C@@H](CCC(N)=O)C(N)=O; set-up: discontinuous LC-MS deacetylation assay, dansylated product quantified, steady-state kinetics; details: 50.0 °C
Protocol: as §1

B1: hHDAC10 (Homo sapiens) (protein)
chain: GTALVYHEDMTATRLLWDDPECEIERPERLTAALDRLRQRGLEQRCLRLSAREASEEELGLVHSPEYVSLVRETQVLGKEELQALSGQFDAIYFHPSTFHCARLAAGAGLQLVDAVLTGAVQNGLALVRPPGHHGQRAAANGFCVFNNVAIAAAHAKQKHGLHRILVVDWDVHHGQGIQYLFEDDPSVLYFSWHRYEHGRFWPFLRESDADAVGRGQGLGFTVNLPWNQVGMGNADYVAAFLHLLLPLAFEFDPELVLVSAGFDSAIGDPEGQMQATPECFAHLTQLLQVLAGGRVCAVLEGGYHLESLAESVCMTVQTLLGDPAPPLSGPMAPCQSALESIQSARAAQAPHWKSLQQQDVTAVPMSPSSHSPEGRPPPLLPGGPVCKAAASAPSSLLDQPCLCPAPSVRTAVALTTPDITLVLPPDVIQQEASALREETEAWARPHESLAREEALTALGKLLYLLDGMLDGQVNSGIAATPASAAAATLDVAVRRGLSHGAQRLLCVALGQLDRPPDLAHDGRSLWLNIRGKEAAALSMFHVSTPLPVMTGGFLSCILGLVLPLAYGFQPDLVLVALGPGHGLQGPHAALLAAMLRGLAGGRVLALLEENSTPQLAGILARVLNGEAPPSLGPSSVASPEDVQALMYLRGQLEPQWKMLQCHPHLVA
notes: full-length, residues 2–669, MBP fusion
Km [1]: 10 ± 1 µM
kcat [1]: 0.00038 ± 2e-05 s⁻¹
kcat/Km [1]: 38 ± 2 M⁻¹ s⁻¹
Km [2]: 60 ± 20 µM
kcat [2]: 0.0006 ± 0.0001 s⁻¹
kcat/Km [2]: 11 ± 3 M⁻¹ s⁻¹
Km [3]: 140 ± 40 µM
kcat [3]: 0.0092 ± 0.0008 s⁻¹
kcat/Km [3]: 66 ± 5 M⁻¹ s⁻¹
kcat ([4]; 50.0 °C): 0.14 ± 0.02 s⁻¹
kcat/Km ([4]; 50.0 °C): 1300 ± 200 M⁻¹ s⁻¹
Km ([4]; room temperature): 110 ± 20 µM
kcat ([5]; 50.0 °C): 0.011 ± 0.002 s⁻¹
kcat/Km ([5]; 50.0 °C): 60 ± 10 M⁻¹ s⁻¹
Km ([5]; room temperature): 180 ± 20 µM
kcat ([6]; 50.0 °C): 0.35 ± 0.04 s⁻¹
kcat/Km ([6]; 50.0 °C): 2100 ± 300 M⁻¹ s⁻¹
Km ([6]; room temperature): 170 ± 50 µM
kcat ([7]; 50.0 °C): 0.1 ± 0.02 s⁻¹
kcat/Km ([7]; 50.0 °C): 620 ± 50 M⁻¹ s⁻¹
Km ([7]; room temperature): 160 ± 40 µM
kcat ([8]; 50.0 °C): 0.14 ± 0.08 s⁻¹
kcat/Km ([8]; 50.0 °C): 900 ± 300 M⁻¹ s⁻¹
Km ([8]; room temperature): 150 ± 90 µM
kcat ([9]; 50.0 °C): 0.28 ± 0.02 s⁻¹
kcat/Km ([9]; 50.0 °C): 2900 ± 200 M⁻¹ s⁻¹
Km ([9]; room temperature): 100 ± 10 µM

B2: zHDAC6 CD2 (Danio rerio) (protein)
chain: MDAVPDTKGSSGPPRGTPETKNNKKNLQEARRKGRMDRSKAEEEMSNELQNLDVQGKSKATGTGLVYVDAFTRFHCLWDASHPECPARVSTVMEMLETEGLLGRCVQVEARAVTEDELLLVHTKEYVELMKSTQNMTEEELKTLAEKYDSVYLHPGFFSSACLSVGSVLQLVDKVMTSQLRNGFSINRPPGHHAQADKMNGFCMFNNLAIAARYAQKRHRVQRVLIVDWDVHHGQGIQYIFEEDPSVLYFSVHRYEDGSFWPHLKESDSSSVGSGAGQGYNINLPWNKVGMESGDYITAFQQLLLPVAYEFQPQLVLVAAGFDAVIGDPKGGMQVSPECFSILTHMLKGVAQGRLVLALEGGYNLQSTAEGVCASMRSLLGDPCPHLPSSGAPCESALKSISKTISDLYPFWKSLQTFEGGPLSEVSPLPAPVCAEVKVSSPITGLVYDQRMMLHHNMWDSHHPELPQRISRIFSRHEELRLLSRCHRIPARLATEEELALCHSSKHISIIKSSEHMKPRDLNRLGDEYNSIFISNESYTCALLAAGSCFNSAQAILTGQVRNAVAIVRPPGHHAEKDTACGFCFFNTAALTARYAQSITRESLRVLIVDWDVHHGNGTQHIFEEDDSVLYISLHRYEDGAFFPNSEDANYDKVGLGKGRGYNVNIPWNGGKMGDPEYMAAFHHLVMPIAREFAPELVLVSAGFDAARGDPLGGFQVTPEGYAHLTHQLMSLAAGRVLIILEGGYNLTSISESMSMCTSMLLGDSPPSLDHLTPLKTSATVSINNVLRAHAPFWSSLRVNIPESLRLSLPSPKPKGKCTPGGKGKKSPRQSTPSQSPGQATHRPDQSGFDELTADLLSLNLNTSTSSNTSPESVAVGGARRKVKPNTHRVSAGLESESPLKLNPEKAGAGDDTDVKAETPNRSISEPVVTCDSSAVKDQESLVLEAAGGNTVQSVLERVFGAQATDVDTMYVVDPLPWCPHLESVRPVPAGGIDVFQPCEECGGEAENWICLFCYKVLCGRYVNQHMVTHGQESGHPVVLSFADLSVWCYACESYVHNKVLHEAKNAAHLVKFGEGIHPFN
notes: catalytic domain 2
Km [10]: 150 ± 20 µM
kcat [10]: 1.26 ± 0.07 s⁻¹
kcat/Km [10]: 8300 M⁻¹ s⁻¹
